Activity (% edited of piglets born) data for two sequences are collected here from patent US20150313192.

Data set [1] concerns RELA TALEN11-1R (right monomer) (synthetic (Xanthomonas TALE)?). The data set can be described thus: cell_activity. Conditions: TALEN pair mRNA 2 ng/ul zygote injection, 8 of 39 piglets; 21% of embryos tested in vitro; assayed as pair with left monomer; left/right assignment to ….
The subject of data set [2] is RELA TALEN11-1L (left monomer) (synthetic (Xanthomonas TALE)?). Kind of data set: cell_activity. Conditions: TALEN pair mRNA 2 ng/ul zygote injection, 8 of 39 piglets; 21% of embryos tested in vitro; assayed as pair with right monomer; left/right assignment to ….

“AGTACCCTGAGGCTAT (double strand) [RELA TALEN right half-site]” returned an activity (% edited of piglets born) in data set [1] of 21.

“GCCCCCCCACACAGCTG (double strand) [RELA TALEN left half-site]” showed an activity (% edited of piglets born) in data set [2] of 21.
